{"source": "paper PMC10333379", "target": "human angiotensin-converting enzyme 2 (hACE2) with an Fc domain (human) (UniProt Q9BYF1)", "sequence (Q9BYF1 18-740)": "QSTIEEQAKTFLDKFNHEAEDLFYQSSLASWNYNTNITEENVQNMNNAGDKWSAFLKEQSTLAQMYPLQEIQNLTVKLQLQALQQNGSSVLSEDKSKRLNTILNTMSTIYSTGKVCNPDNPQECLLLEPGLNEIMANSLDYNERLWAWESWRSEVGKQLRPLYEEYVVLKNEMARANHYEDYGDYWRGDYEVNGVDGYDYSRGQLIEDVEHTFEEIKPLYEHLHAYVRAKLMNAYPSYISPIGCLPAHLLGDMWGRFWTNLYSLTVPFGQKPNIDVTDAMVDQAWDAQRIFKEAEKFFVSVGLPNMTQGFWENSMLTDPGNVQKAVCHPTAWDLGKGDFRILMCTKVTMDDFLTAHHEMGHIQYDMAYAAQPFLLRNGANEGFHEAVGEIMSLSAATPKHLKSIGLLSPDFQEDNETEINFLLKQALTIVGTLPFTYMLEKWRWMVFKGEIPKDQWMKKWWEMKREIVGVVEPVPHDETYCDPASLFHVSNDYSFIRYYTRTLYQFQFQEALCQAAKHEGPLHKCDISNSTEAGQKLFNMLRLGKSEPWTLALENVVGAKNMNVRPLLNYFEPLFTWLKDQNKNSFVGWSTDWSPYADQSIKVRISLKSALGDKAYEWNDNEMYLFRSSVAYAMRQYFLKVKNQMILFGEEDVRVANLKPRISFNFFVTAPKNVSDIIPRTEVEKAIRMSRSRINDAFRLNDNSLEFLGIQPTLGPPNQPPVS", "assay": "BLI", "data": [{"substance": "Bat SARS-like coronavirus CX1 receptor-binding domain (RBD) of spike protein (domain or fragment)", "values": [{"measurement": "Kd", "result": 0.0107, "unit": "µM"}]}]}
